Assay results from US6531306.
Read-outs that look alike come from different tables or passages of the source.

Assays:
[1] = molecular target: T1, Active DNA-dependent ATPase A Domain (ADAAD, 82 kDa) (Bos taurus) (UniProt Q9TTA5); settings: apparent binding constant from ATP hydrolysis kinetics
T1 sequence: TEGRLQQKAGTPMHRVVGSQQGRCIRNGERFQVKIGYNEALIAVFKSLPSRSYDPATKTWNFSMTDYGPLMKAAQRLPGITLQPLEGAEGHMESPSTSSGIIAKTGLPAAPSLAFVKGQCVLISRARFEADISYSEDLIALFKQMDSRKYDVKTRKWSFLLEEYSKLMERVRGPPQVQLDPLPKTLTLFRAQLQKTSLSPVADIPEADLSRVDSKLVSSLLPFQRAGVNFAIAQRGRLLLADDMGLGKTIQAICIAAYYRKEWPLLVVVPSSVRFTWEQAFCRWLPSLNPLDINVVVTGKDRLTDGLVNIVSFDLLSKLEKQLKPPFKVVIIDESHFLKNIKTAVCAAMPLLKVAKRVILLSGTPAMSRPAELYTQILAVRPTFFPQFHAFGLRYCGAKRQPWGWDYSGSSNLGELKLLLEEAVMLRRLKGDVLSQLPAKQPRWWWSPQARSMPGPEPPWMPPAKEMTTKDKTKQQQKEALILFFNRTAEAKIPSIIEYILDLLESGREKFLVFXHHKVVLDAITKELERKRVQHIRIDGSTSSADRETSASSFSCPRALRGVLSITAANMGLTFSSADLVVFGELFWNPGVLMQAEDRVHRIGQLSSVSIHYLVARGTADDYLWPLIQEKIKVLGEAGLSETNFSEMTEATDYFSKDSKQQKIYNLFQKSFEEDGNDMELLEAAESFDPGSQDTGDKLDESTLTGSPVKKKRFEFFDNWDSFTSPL

[2] = tested on: MAbs specific for DNA-dependent ATPase A
[3] = molecular target: T1, Active DNA-dependent ATPase A Domain (ADAAD, 82 kDa) (Bos taurus); settings: ATP hydrolysis
[4] = molecular target: T1, Active DNA-dependent ATPase A Domain (ADAAD, 82 kDa) (Bos taurus); settings: blunt-ended stem-loop, dG 18.4; ATP hydrolysis; SEQ:1 inferred
[5] = molecular target: T1, Active DNA-dependent ATPase A Domain (ADAAD, 82 kDa) (Bos taurus); settings: ATP hydrolysis; remark: listed apart in the source
[6] = molecular target: T1, Active DNA-dependent ATPase A Domain (ADAAD, 82 kDa) (Bos taurus); settings: ATP hydrolysis; remark: listed apart in the source

Substance: stem-loop DNA, 9-base loop
- Ka [1]: 8e+07 M⁻¹

Substance: DNA-dependent ATPase A
- DNA-dependent ATP hydrolysis in vitro [2]: none of the MAbs demonstrate inhibition of DNA-dependent ATP hydrolysis in vitro

Substance: Table 16 structure 6 AT-rich blunt-ended duplex
- activity (relative activity) [3]: 49

Substance: GCGCAATTGCGCTCGACGATTTTTTAGCGCAATTGCGC [stem-loop DNA, 12-base loop]
- activity (relative activity) [4]: 90

Substance: stem-loop DNA, 3-base loop
- Ka [1]: 2e+07 M⁻¹

Substance: stem-loop DNA, 6-base loop
- Ka [1]: 5e+07 M⁻¹

Substance: Table 16 structure 7 blunt-ended duplex, 4 base mismatch
- activity (relative activity) [5]: 66.5

Substance: Table 16 structure 8 blunt-ended duplex, 10 base mismatch
- activity (relative activity) [6]: 83.7
